This data set deals with the molecule itself. Description: SDS-PAGE after partial denaturation; fractionated fimbriae in loading buffer with 1% SDS and 0.5 M 2-mercaptoethanol heated at 37, 60 and/or 80°C for 10 min; CBB staining and western blotting. A general note: In western blotting, separated proteins are transferred to a membrane and probed.

The record followed here is article PMC5351860, “Novel fimbrilin PGN_1808 in Porphyromonas gingivalis” (PLoS ONE, 2017).

B1: Mfa1 (Mfa1 fimbriae purified from the fimA gene-deletion mutant of P. gingivalis ATCC 33277) (natural protein)
chain: AGDGQDQANPDYHYVGEWAGKDKIEKVSIYMVPQGGPGLVESAEDLDFGTYYENPTIDPATHNAILKPKKGIKVNSAVGKTVKVYVVLNDIAGKAKALLANVNAADFDAKFKEIIELSTQAQALGTVADGPNPATAAGKIAKKNGTTDETIMMTCLQPSDALTIEAAVSEANAIAGIKNQAKVTVERSVARAMVSTKAQSYEIKATTQIGEIAAGSVLATITDIRWVVAQGERRQYLSKKRGTVPENTWVTPGSGFVPTSSTFHTNATEYYDYAGLWEDHNTNEAVISGTQVPTLADYQLQDVTGELANALSGKFLLPNTHKSGANAASSDYKRGNTAYVLVRAKFTPKKEAFIDRGKTYSDNTAVPEYVAGEDFFVGENGQFYVSMKSVTDPKVGGVAGMKAHKYVKGKVLYYAWLNPSTTSPDSWWNSPVVRNNIYHIHIKSIKKLGFNWNPLVPDPDPSNPENPNNPDPNPDEPGTPVPTDPENPLPDQDTFMSVEVTVLPWKVHSYEVDL
notes: source: fimA gene-deletion mutant derived from P. gingivalis ATCC 33277; fractionated by ammonium sulfate precipitation and DEAE Sepharose chromatography
B1: the binding result was “binds”.
